Entries after “also recorded” stand apart in the source; their conditions may differ.
Columns and labels:
[1] = test system: K160E/R164E double mutant SGTA_TPR; test: Reciprocal NMR CSP titration, Rpn13_260-407 with K160E/R164E double mutant SGTA_TPR; type: binding, human; conditions: up to 6-fold molar excess of Rpn13_260-407 and vice versa; pH 6.0, 25 °C
From the text: The ‘two-carboxylate clamp’ mode of binding is a well-characterised mechanism of molecular recognition by TPR domains in the context of their binding to the conserved C-terminal IEEVD and MEEVD motifs of Hsp70 and Hsp90 chaperones, respectively. It is known that conserved residues present on the concave surface of the TPR domain form a positively charged region within this groove that clamp, the two carboxylate groups of the terminal aspartate (Fig. 3D). […]
Protein samples at concentrations between 300 μM and 1 mM were prepared in 10% D2O (Sigma Aldrich), 10 mM potassium phosphate pH 6.0, 100 mM NaCl and 250 μM TCEP buffer (with 10 μM DSS for proton chemical shift referencing). […] All NMR spectra were processed with TopSpin and analysed with CcpNMR Analysis[35]. Proteins used for NMR titrations were dialysed overnight against the same buffer (10 mM potassium phosphate pH 6.0, 100 mM NaCl and 250 μM TCEP) and mixed in different molar ratios, with the concentration of the labelled protein maintained constant. ^1H-^15N HSQC experiments were recorded for each titration point at 25 °C. Chemical shift perturbation (CSP) values were calculated for each amide signal using the following formula: […]

[2] = 1H-15N heteronuclear NOE of Rpn13_260-407, free and SGTA_TPR-bound; parameters: species or system human; conditions: 350 μM 15N-labelled Rpn13_260-407, 700 MHz, four second saturation transfer or control period
Experimental: To study the dynamic properties of free and SGTA_TPR-bound Rpn13_260-407, ^1H- ^15N heteronuclear NOE experiments were carried out with a four second saturation transfer or control period. […] The average heteronuclear NOE enhancement value for Rpn13 residues Asp 403 to Asp 407 in the free and SGTA_TPR-bound state were −0.71 and 0.48, respectively, thus indicating the transition of the Rpn13 extreme C-terminal pentapeptide region to a more ordered state upon binding to SGTA_TPR (Fig. 2C).
where Δδ1H and Δδ15N are the chemical shift differences for the same amide in its free and bound state (δfree−δbound) and for proton and nitrogen chemical shift values respectively. CSP results were mapped on to the SGTA_TPR crystal structure (PDB code 2VYI) using PyMOL. ^1H-^15N heteronuclear NOE experiments were performed with a four second saturation transfer or control period at 700 MHz. Sample concentrations of ^15N-labelled Rpn13_260-407 were maintained at 350 μM both in its free and bound state with unlabelled SGTA_TPR at a 1:1 molar ratio.

[3] = test system: K160E/R164E double mutant SGTA_TPR; test: Size exclusion chromatography (SEC) complex formation with K160E/R164E double mutant SGTA_TPR; type: binding, human; conditions: Rpn13_260-407 up to 3-fold molar excess
From the text: The ‘two-carboxylate clamp’ mode of binding is a well-characterised mechanism of molecular recognition by TPR domains in the context of their binding to the conserved C-terminal IEEVD and MEEVD motifs of Hsp70 and Hsp90 chaperones, respectively. It is known that conserved residues present on the concave surface of the TPR domain form a positively charged region within this groove that clamp, the two carboxylate groups of the terminal aspartate (Fig. 3D). As the Rpn13 amino acid sequence ends with an aspartate, and given the C-terminal DMSLD peptide being necessary and sufficient for this interaction, the possibility of a two-carboxylate clamp mechanism was explored by site-directed mutagenesis experiments. […] Therefore a K160E/R164E double mutant version of SGTA was used in SEC and NMR experiments to understand the effect it had on Rpn13_260-407 binding.
Gene fragments encoding human Rpn13 (260–407 and 260–402) and SGTA_TPR domain (84–211) were PCR amplified from cDNA (Life Technologies) and cloned into the BamHI/XhoI site of a modified pET28 vector which encodes an N-terminal thioredoxine A (TxA) fusion protein followed by a hexahistidine tag and tobacco etch virus (TEV) protease cleavage site. […]

B1: Rpn13_260-407: Rpn13 C-terminal domain (residues 260–407), human, expressed in E. coli (protein)
chain: QPIQLSDLQSILATMNVPAGPAGGQQVDLASVLTPEIMAPILANADVQERLLPYLPSGESLPQTADEIQNTLTSPQFQQALGMFSAALASGQLGPLMCQFGLPAEAVEAANKGDVEAFAKAMQNNAKPEQKEGDTKDKKDEEEDMSLD
modifications: left off: thioredoxin A (TxA), N-terminal, cleaved | His6, N-terminal, cleaved
notes: Rpn13 C-terminal domain (residues 260–407), human, expressed in E. coli
[1]
  CSP with K160E/R164E SGTA_TPR, result in words: disruption of the SGTA_TPR-Rpn13_260-407 interaction
[2]; SGTA_TPR-bound state, 1:1 molar ratio
  average heteronuclear NOE enhancement value, residues Asp 403 to Asp 407: 0.48
[2]; free state
  average heteronuclear NOE enhancement value, residues Asp 403 to Asp 407: −0.71
[3]
  SEC complex formation with K160E/R164E SGTA_TPR: does not co-elute; also recorded: no evidence of complex formation
